Where a chain is given by its changes, count along the chain named.
B1: 1F4_5C5 (antibody, V domains shown)
VH: EVQLVQSGGGVVQPGRSLRLSCAASGFTSKKYGMHWVRQAPGKGLEWVAVISHDGSKKYYADSVKGRFTISRDNSKNTLFVQLSSLRPEDTAVYYCATSLYSSMDLWGQGTTVTVSS
VL: QSVVTQPPSVSAAPGQKVTISCSGSNSNIGKNYVSWFQQVPGTAPKLLIFEDNQRPSGIPDRFSASKSGTSASLAISGLQSEDEADYYCAAWDDLGGDHWVFGGGTKLTVL
B2: 1F4_4E10 (antibody, V domains shown)
VH: B1 VH with K30R, K31A, Y32P
VL: B1 VL with L95H, G96N, D98E
B3: 1F4_1E3 (antibody, V domains shown)
VH: B1 VH with K30R, K31H, Y32P
VL: B1 VL with L95Y, G96R, D98P
B4: 1F4_5F8 (antibody, V domains shown)
VH: B1 VH with K30R, K31N, Y32P
VL: B1 VL with L95S, G96T, D98V

Biological target: human KRAS (antigen of the affinity data in Table 1; variant not stated) (human) (UniProt P01116)
Assay: kinetic affinity measurement (Rmax in RU; method and format not named)

Row | Kd [nM] | koff [s⁻¹] | kon [M⁻¹ s⁻¹] | Binder
1 | 6.63 | 0.0011 | 166000 | B1
2 | 9.6 | 0.0013 | 135000 | B2
3 | 4.2 | – | – | B3
4 | 12.6 | 0.00229 | 182000 | B4

From patent US20190284275A1
